According to patent US20230321260A1:

Target: MBP-RumTrunkD9NTag
Test: isopeptide coupling to RumTrunkD9NTag-MBP, 5 uM each, 37 C, SDS gel (time given as 50 minutes and as 3 h)

For SpyCatcher-VLP, the Percentage reconstitution was 11.9%.
